Data reported in a protein production outcome set (Wang et al. 2014).

Assay: label from the status in PepcDB records

Protein production, failed:
MARLIIPCRSSSLARVNLLGLLSRAPVPVRSSCLRSSANRLTQHRPFLTSEAICLRKNRFLPHSVDTHKQNSRRLICSVATESVPDKAEDSKMDAPKEIFLKNYTKPDYYFETVDLSFSLGEEKTIVSSKIKVSPRVKGSSAALVLDGHDLKLLSVKVEGKLLKEGDYQLDSRHLTLPSLPAEESFVLEIDTEIYPHKNTSLEGLYKSSGNFCTQCEAEGFRKITFYQDRPDIMAKYTCRVEGDKTLYPVLLSNGNLISQGDIEGGRHYALWEDPFKKPCYLFALVAGQLVSRDDTFTTRSGRQVSLKIWTPAEDLPKTAHAMYSLKAAMKWDEDVFGLEYDLDLFNIVAVPDFNMGAMENKSLNIFNSKLVLASPETATDADYAAILGVIGHEYFHNWTGNRVTCRDWFQLSLKEGLTVFRDQEFSSDMGSRTVKRIADVSKLRIYQFPQDAGPMAHPVRPHSYIKVYEKVWLFTNSVLLYAGAEVVRMYKTLLGTQGFRKGIDLYFERHDEQAVTCEDFFAAMRDANNADFANFLQWYSQAGTPVVKVVSSYNADARTFSLKFSQEIPPTPGQPTKEPTFIPVVVGLLDSSGKDITLSSVHHDGTVQTISGSSTILRVTKKEEEFVFSDIPERPVPSLFRGFSAPVRVETDLSNDDLFFLLAHDSDEFNRWEAGQVLARKLMLNLVSDFQQNKPLALNPKFVQGLGSVLSDSSLDKEFIAKAITLPGEGEIMDMMAVADPDAVHAVRKFVRKQLASELKEELLKIVENNRSTEAYVFDHSNMARRALKNTALAYLASLEDPAYMELALNEYKMATNLTDQFAALAALSQNPGKTRDDILADFYNKWQDDYLVVNKWFLLQSTSDIPGNVENVKKLLDHPAFDLRNPNKVYSLIGGFCGSPVNFHAKDGSGYKFLGDIVVQLDKLNPQVKTPKLTCVFAVTYIM
MARLIVNALVSVPLAEIEIGFVRSGGAGGQNVNKLATAAHLRFDIAASSLPETCKTRLLDHRDRRMTAEGIIVIKAQRFGTQEKNREDALARLRGLILQALAQRRPRKPTRPTLAAKKKRLDEKTRHGEIKRLRRRIGDLEHHHHHH
MARMAVTLTHVMAMHAQILKFIVTALFVVPLFLAPAEAQTSETDLLAQLQTAPESEANRLERELALIWDQSGSAAMDLLLKRGREALEDEDNARAVEHLSALTDHAPEFAEGWHARATALYRAGLYGPALDALHQALLLNPNNFNAIFGLGVMMREFGDLDRAARAFDRVLELHPHHKRAKAAKEQMAVQGLGQTL
MARQLDEQIAGRFPVGQRLRVLDVGMGQGTQALRLARAGHQVTGVEQDATMIAVARETLAAEPEGIRSRMRLVQSDGRDTGVHFLPGSFDVVLCHGVLMYVEDPDALLAGLARMLAPGGLLSLLVRNADALAMRPGLAGDWASALTSFDTTAYTNRLGLDVRADRLDALTSTLAGIGAPLHAWYGVRVFTDTAADGAELPADVETLLAAEERAGRTDPYRQVAALLHLCGVRGGGAP
MARQTYGTTPWGAWFLDMLKAYDDSGRLSRGKTYANTGKVNSLVVNGQTAGAKVKGNYSPWYHVYFKFPPLSKTNKTAIRSILEKHPIELAGLRAGIMSPALIEALKKKKVRLIPARWNLIERDCTCPDSGDPCKHMAAVLFLLAKEIDHDPRLLFKLAGFDIDSINVPETEVFEKGGTQKLGLLQEQPVPLSLRKNETLNKAADLSSDSSVSETAHNSCELQSPLKFSLGESYLPLITNILPPEPNFSSSDFIIKLTEFYHKAVLNYGLNFYGQEKQSEKQEEKSVNPFLFARVKVNIDNIRKQKRAFPLEPKSPLTVNIKLGETHEINQTLLQAQNFYKTRNSLNEMSPSVKILFSLFALAGKLIQSSAFIPAVFTENKKLFIFWKSLSASSEIKADIFKFAASLTKDFFLPVGKWGRLYCAELLLTALLTEYAASLKFFPNKSYTKDKEIDKLFFLNEEIDISVPGKRNLDTVIYSWLSVLNYSNCGYEYRLTLEALKDDEFFLLSALVRKAKEKRIEAGDDSFALEAEAPFAELNTAAKRSKNPDDILRFPATLAAYLPALSILAIKKNVMLSREETGLFLQKSAKLLQRFGIDIVLPKSLKNILTPKPVISVKSVKGAGNIVSFLNIDDVLSYDRALMLGDTLIDIDEFKKLFLNKSGLVKFNDQFLLLDPEEVAKMLKALEKPADTKEVLQAVLSGNAVCSKPASEIIKNIFRQEEVPVPQNLNAELRPYQKQGYRWLYANIKSGFGCLLADDMGLGKTVQIISLMLSFKNSKEAESPFLVIAPASLLSNWEHEIAKFAPSLKTAVYHGAGRKFTTEADVIISTYQTMQKDIEKLKDKKVFCIILDEAQAIKNSGTKKAHAVKAIQARGRVALTGTPVENNLEDMRSIFDFFLPGYLGTADEFRKKWRIPIELHNSETEADDLKKITSPFLLRRLKTDPKVISDLPDKIITNQYCNLTPEQLAIYENLVETELHKVMGAETKIERQAYVLKLLTALKQVCNHPRAYDKETPIEMKYSGKAAVLIELLNEIISSGEKAIIFSQYVGTLDILKNIIQKELGTEPLLLHGQMPASKRKKAVEVFQTDSAYRIFLISLKAGGTGLNLTAANRVIHFDLWYNPAVEDQATDRAFRIGQTKNVFVHRLICSGTFEEKIDEMIQKKREISGMSISAGETWISKLSNEELAGLFKS
MASEAVNVWSRTSLILIMLSAAILVVAVGAVMNSGLVESLQVPLWEKWVILVFLFALIIGIIGPLSGVGGGVIFVGLGMAILPFNVDFIRGAGLVAALSTSLNSAPYFTKKGLANLRIVAPLVSVSTIFSVFGGVIGLWISNSFPEGSYYVKMSLGVVLLVLLLILSRSKNVEYPPPREKKDRLSEMIDLTGGWYEPTLNRIVTYEASNLPLAMLAFSGVGFLAGMFGLGAGWANVPILNLVMGLPLKAAVASSMLILAINDSASLWVYLANGAVLPIVVVPVVLGISIGSRIGSRLAAKTKPKVIKRLVIALIALSGVVNIIQGLSGIGLLNL
MASEEGQVIACHTVETWNEQLQKANESKTLVVVDFTASWCGPCRFIAPFFADLAKKLPNVLFLKVDTDELKSVASDWAIQAMPTFMFLKEGKILDKVVGAKKDELQSTIAKHLA
MASFDGQGFMMVDNSWVQTKAIDVESTTDISPYLSKILEDSVWNGNRSIVFDVYWDVKSVSTKSEWRLCSVKFSTKNFCLFLRLPNPFCDNLKDLYRFFASKFVTFVGVQIQEDLALLKENHGIVIRSSLEIGKLAAKARGTPIVEFLGTRELAHKILWYDMSRLDSIQSKWDEASSNDRLEAAAIEGWLIFNVYDQLQQ
MASIEQVAELISSLEQATLMAQQIGTTVGQNQLLQISSLRIAHQRLSAFLASIPTAEAEKSFSSVEPMQLGEEEKGEAEPAEEERYSAIEKVEEKMRECFIRNKRLKRPLSPSSAVVETSATEERSGRDYGFDSDPHATKLRALDLIYQFHA
MASISATLYELCEAVDHPVPTRDRDVEAVFAEIEFDAIEFCPIEFVILPIGDWLDIFGDKIVLSEPFESAVDCRLRDPGAVAELCRRARLLFRLDENRARTLVTEQVCECFRISHVGHCKRAISWFVNIGCAVLGFLSGFSQRSHKKLPSISALTFRVRMSNRQTRTPTSVLLPTVSWTAACDDVAAQLGPEDELLIIHDSKDDPVVDRKPLSENVQFIPAGDPVGCSGKANAIAAGMEAANHDRLVWTDDDFHHPPDWLDRLHKDYAEYGPTTELPAFVGQDPLAVLLEPVYVLGGTLGTYMGDHAWGGAVIFDRSALDEERFLSELRQTISDDGLLGEHISVTSVQRVRRVPMGGSLRQTLERHIRFNQIFSTHDPTVAKLSFGVLVAVLIGCVFFPLLAVVLTVLTAGVSASFGVRRASLLLTVPALVAAVPLGLYAFARDTFVWGGRRYRWHSKFDVEVLNE
MASKITQPDKYSGFLNNYSDLKETTSATGKPVLRWVDPSFDQSKYDSIVWNPITYYPVPKPSTQVGQKVLDKILNYTNTEMKEAIAQRKPLVTTAGPRSLIFRGAITGVDTSKEGLQFYEVVPVALVVAGTQMATGHRTMDTRLYFEGELIDAATNKPVIKVVRQGEGKDLNNESTPMAFENIKQVIDDMATDATMFDVN
MASKSSFMATFNIVTLMLMVASSTVTARPLMKPSMGTSSPTTSLVYRLKLDEDTGYCWDSLMQLQHCSGELILFFLNGETYIGPGCCSAIRTIGRKCWPTMIGVLGFTAQEGDMLQGYCDGNDSDNNGEDHALASSTLPLSVNFKTTVVRSSASPSNP
MASLDEKWEAVDNFKSVVVDRERDVVRVTKELYDLHSNREQLRGVTSSCNYRLTIPFAPHHFGSGKTTFARTYLELVQRFGETSLSTFASDPLKRTFLEKLKRASLLYADLKELKPTDPKERNLEWAVYYLLIKAACLQSGLPQPDPDECFKELKLRSDALVQKIRSILNIPSDQYLLVAFDEVGVLDESLDEFHFKRTHDGRVRPYNDFFGIISQLCKEPDLFFIVVGKSKGLSIKNYVSSVSKVILHFISLSPLDASSIVEFLEKSLLKTPTQVPVCNVLCSSSFSVNELADSLLECTGGVPGLLTRAVNMLLNYIIARKFVLNHLWNEY
MASNGHTLRLVINRDKHDSVIRGLYLVTDHDDNLIPRVEAAIDGGARVVQYRNKNQDRESRLALGLELRELCRRRSIPFIVNDDLEMAVSLKADGLHLGQGDGDPREARRVLGPGKIIGVSTHTLSEALEAQAAGVDYIGLGAMFPSRSKEVEHVAGSELLAAIRSSISIPIVAIGGITRDNGASVIDAGADAVAVISAVLSHPDPALAATEIALLFNRRAPFPRGSVLTVAGSDSGGGAGIQADLKTVTLLGSYGSSVLTALTAQNTRGVSGIHGVPPAFVADQLDAVFSDIPVDVVKTGMLFSAETIVAIAAKLTEYRRRMVVVDPVMVAKGGANLIDRGAVSVLKERLFPLAYLVTPNIPEAERLTGANISDEESMREAARRLHRLGARNVLLKGGHLLAGDSVDILFDGAAFHRFVSPRILSKNTHGTGCTFASAIATYLAQGDPLREAIARAKRYITAAIRLAQPLGRGHGPVNHILAAEDVRDR
MASNSRSSISPWTFSQNKMFERALAVYDKDTPDRWHNVAKAVGGKTVEEVKRHYDILVEDLINIETGRVPLPNYKTFESNSRSINDFDTRYITKYLYMMLSIYFDNHSSDFEKFSQKVLVSYISLV
MASPATFQFSRTKLNLQINLVERKSPSKLSFPLLFRDQAKSTPIRFPVIRASSSSSASNHKPSLLKTTFISLTAAAALFSASFYFVNKRAAMTPVAVVETTLEKHLETQSNDVNALSLLTEIKFKSDKHEQAIVFLDRLIEIEPYERKWPAMKARILSYHGKSESAIEAFEEILEKDPIRVDAYHYLVMEYYNSKPKLTEIEKRINKVIRRCKKEKKTKEILGFRMLIAQIRFIEGKSVEAIRICEELVKEDPNDFTIYLFQGVVYTLMNKGEEAAKQFEHVARVIPRNHPSRETAARTTNSNEWRVIVAYDNVYCYLSTFARLSMASLFNKFG
MASQVTAGSSGPVCFLTVGLRLPSARGQPVVSNFNQPRPPQRQRWVDSLLGVSLVALVVAAALPLLLPLVRLPGGSSARDRELAAAQATAFQTVLQRDPDNLSALRSLIGVYLQQQQLQAAIAPLQRLARLQPQQPAYRVLLAQTQAQLGDREAAAQTYRQILETAPTNLEALRGFTQLLLTQKQPTAAVDLLQKARQTDKITPADQVSIDLMLAQVYANQGQIDDAIALYDRSAQNNGRDFRPLLAKALLLKQQGDLQKATPIFQEAIAIAPAQYRDQIRQLSPASMPATPPTQPATKTPPTAPPPPPN
